This note sets out measurements from US20240424167A1.

No end group written: not given here.

For assay [1], the target named is type I collagen of the SIS membrane. As to the kind of experiment: CLSM, SIS membrane soaked in 200 µM chimeric peptide solution (H-pSIS).
Assay [2] concerns the target type III collagen of the SIS membrane. The description is as above.

B1: P10 polypeptide (TKKTLRT+linker-1+JH8194) (peptide)
peptide: TKKTLRTGGGGSGGGGSKRLFRRWQWRMKKY
modifications: also: fluorescent label FITC or rhodamine B (paragraphs differ), position not given here
With B1, the fluorescent area of the SIS membrane in assay [1] is above 85%.

B2: P12 polypeptide (KELNLVY+linker-1+JH8194) (peptide)
peptide: KELNLVYGGGGSGGGGSKRLFRRWQWRMKKY
modifications: also: fluorescent label rhodamine B or FITC (paragraphs differ), position not given here
With B2, the fluorescent area of the SIS membrane in assay [2] is above 85%.

B3: P11 polypeptide (KELNLVY+linker-1+Hst1) (peptide)
peptide: KELNLVYGGGGSGGGGSSHREFPFYGDYGS
modifications: also: fluorescent label rhodamine B or FITC (paragraphs differ), position not given here
For the molecule B3, in assay [2], the fluorescent area of the SIS membrane was above 85%.

B4: P9 polypeptide (TKKTLRT+linker-1+Hst1) (peptide)
peptide: TKKTLRTGGGGSGGGGSSHREFPFYGDYGS
modifications: also: fluorescent label FITC or rhodamine B (paragraphs differ), position not given here
The molecule B4 came in with a fluorescent area of the SIS membrane in assay [1] above 85%.
